{
  "source": "patent US20240261340A1",
  "about": "“Cutibacterium Acnes Biomimetic, Prebiotic, Probiotic and Postbiotic Compositions for Treatment of Skin Conditions” (Johnson & Johnson Consumer Inc., priority 2023, published 2024)",
  "tested_on": "Normal Human Epidermal Keratinocytes (NHEK)",
  "assay": "Lipid accumulation fluorescence assay (AdipoRed) on NHEK total lipids",
  "assay_type": "cell-based",
  "conditions": "10 μg/ml, positive control",
  "experimental": "Lipid accumulation using a fluorescence assay was then assessed. In particular, following the results of the transcriptomic analysis, NHEK were treated for 6 days with conditioned media at concentrations of 0.1, 0.5, 1, and 2%. Adiponectin 10 μg/ml (Sigma, St Quentin Fallavier, France), known in the literature to induce lipid production in cell cultures, was used as positive control. To quantify and visualize total lipids after the 6 days of treatment, cells were treated with AdipoRed™ Assay Reagent (Lonza, Verviers, Belgium) a lipophilic reagent which fluoresces (excitation: 485 nm, emission: 572 nm). The intensity of the fluorescence is proportional to the lipid concentration and can be measured using a spectrophotometer (Envision, Perlin Elmer, Villebon-sur-Yvette, France). Images were acquired using a fluorescence microscope (Axio imager, ZEISS, Rueil Malmaison France) with magnification ×20.\nAdiponectin induced an increase in fluorescence signal after 6 days of treatment (+25%) which validated the test. […] This experiment was repeated increasing the concentration of the conditioned media to 5% and 10% and reducing the time of treatment to 1 day. Non-conditioned media at 5% and 10% were also tested as negative controls and Adiponectin (10 μg/ml) as positive control.",
  "data": [
    {"molecule": "Adiponectin (protein, UniProt Q15848 19-244, looked up, known in the literature to induce lipid production in cell cultures; positive control (Sigma)) Adiponectin: ETTTQGPGVLLPLPKGACTGWMAGIPGHPGHNGAPGRDGRDGTPGEKGEKGDPGLIGPKGDIGETGVPGAEGPRGFPGIQGRKGEPGEGAYVYRSAFSVGLETYVTIPNMPIRFTKIFYNQQNHYDGSTGKFHCNIPGLYYFAYHITVYMKDVKVSLFKKDKAMLFTYDQYQENNVDQASGSVLLHLEVGDQVWLQVYGEGERNGLYADNDNDSTFTGFLLYHDTN", "values": [
      {"measurement": "increase in fluorescence (total lipids)", "setting": "1 day of treatment", "result": 250, "unit": "%"},
      {"measurement": "increase in fluorescence signal (total lipids)", "setting": "6 days of treatment", "result": "+25%"}
    ]}
  ]
}
